Data on five substances can be found in paper PMC8197028.

What all share (test): NMR
In series [1] the test system is Asp44. As to conditions: isolated peptide fragments, largely unstructured; cited from earlier work.
Series [2] addresses Glu72 (UniProt position 822, QHLKKEKGLF-). As to conditions: native (folded) state.
In series [3] the target is Glu45 (UniProt position 795, --LSDEDFKAV). To be noted: native (folded) state.
For series [4], the target named is Asp46 (UniProt position 796, -LSDEDFKAVF). As to conditions: native (folded) state.
In series [5] the target is Asp44 (UniProt position 794, ---LSDEDFKA). To be noted: native (folded) state; cited from earlier work.
The mark [6] stands for this setting: fully folded over the whole pH range.

Regarding “HP36 peptide fragment, residues 41-53 (not stated in the article (Gallus gallus inferred))”, in series [1], the pKa (in general, the negative logarithm of the acid dissociation constant) is given as 4.00.

As for “Villin headpiece helical subdomain HP36 D44N (not stated in the article (Gallus gallus inferred); D44N)”, the pKa in series [2] (setting [6]) amounted to 4.32±0.02; in series [3] (setting [6]), 3.86±0.02; in series [4] (setting [6]) it was 3.43±0.05.

On to “Villin headpiece helical subdomain HP36 D44N/K48M (not stated in the article (Gallus gallus inferred); D44N;K48M)”, for which the values for the pKa in series [2] (setting [6]), in series [3] (setting [6]) and in series [4] (setting [6]) were 4.37±0.03, 4.39±0.05 and 3.49±0.08, respectively.

As for “Villin headpiece helical subdomain HP36 K48M (not stated in the article (Gallus gallus inferred); K48M)”, the pKa in series [2] (cited from earlier work) is on record as 4.41±0.03; in series [5], 3.23±0.07; in series [3] (cited from earlier work), 4.68±0.09; in series [4] (cited from earlier work), 3.38±0.05.

On to “Villin headpiece helical subdomain HP36, wild type (not stated in the article (Gallus gallus inferred))”, for which the pKa in series [2] (cited from earlier work) was 4.37±0.03; in series [5], 3.04±0.12; in series [3] (cited from earlier work), 3.95±0.02; in series [4] (cited from earlier work) it was 3.44±0.11.
